Measured values: US20100310549A1 (Bristol-Myers Squibb, published 2010)

Target: T1, full-length human KDR on CHO-KDR cells (human, UniProt P35968 20-1356)
T1 construct: whole, on cells; stably transfected CHO-K1 cells
Experiment: flow cytometry on CHO-KDR cells, His6-tagged protein, anti-His6 MAb and Alexa Fluor 488 anti-mouse antibody
Method: Binding of fibronectin-based scaffold protein to cell-surface KDR and Flk-1 was analyzed simultaneously on VEGF-R2-expressing and control cells by flow cytometry. CHO-pcDNA3 cells (control) were released from their dishes with trypsin-EDTA, washed in Dulbecco's PBS without calcium and magnesium (D-PBS⁻; Invitrogen), and stained for 30 minutes at 37° C. with 1.5 μM CMTMR (5-(and-6)-(((4-chloromethyl)benzoyl)amino)-tetramethylrhodamine) (Molecular Probes). The cells were washed in D-PBS⁻ and incubated for a further 30 minutes at 37° C., and then resuspended in blocking buffer (D-PBS710% fetal bovine serum) on ice. CHO-KDR or CHO-Flk cells were treated identically except that CMTMR was omitted. […] For cells treated with an anti-KDR mouse monoclonal antibody (Accurate Chemical, Westbury, N.Y.) or an anti-flk-1 goat polyclonal antibody (R&D Systems), the anti-His₆ step was omitted, and antibody binding was detected with the species-appropriate Alexa Fluor 488 conjugated secondary antibody (Molecular Probes). Following staining, cells were resuspended in 200 μl/well D-PBS⁻/1% FBS/1 μg/ml 7-aminoactinomycin D (7-AAD; Molecular Probes) and analyzed by flow cytometry on a FACSCalibur (Becton Dickinson, San Jose, Calif.) equipped with a […]. […]

T1 sequence (P35968 20-1356): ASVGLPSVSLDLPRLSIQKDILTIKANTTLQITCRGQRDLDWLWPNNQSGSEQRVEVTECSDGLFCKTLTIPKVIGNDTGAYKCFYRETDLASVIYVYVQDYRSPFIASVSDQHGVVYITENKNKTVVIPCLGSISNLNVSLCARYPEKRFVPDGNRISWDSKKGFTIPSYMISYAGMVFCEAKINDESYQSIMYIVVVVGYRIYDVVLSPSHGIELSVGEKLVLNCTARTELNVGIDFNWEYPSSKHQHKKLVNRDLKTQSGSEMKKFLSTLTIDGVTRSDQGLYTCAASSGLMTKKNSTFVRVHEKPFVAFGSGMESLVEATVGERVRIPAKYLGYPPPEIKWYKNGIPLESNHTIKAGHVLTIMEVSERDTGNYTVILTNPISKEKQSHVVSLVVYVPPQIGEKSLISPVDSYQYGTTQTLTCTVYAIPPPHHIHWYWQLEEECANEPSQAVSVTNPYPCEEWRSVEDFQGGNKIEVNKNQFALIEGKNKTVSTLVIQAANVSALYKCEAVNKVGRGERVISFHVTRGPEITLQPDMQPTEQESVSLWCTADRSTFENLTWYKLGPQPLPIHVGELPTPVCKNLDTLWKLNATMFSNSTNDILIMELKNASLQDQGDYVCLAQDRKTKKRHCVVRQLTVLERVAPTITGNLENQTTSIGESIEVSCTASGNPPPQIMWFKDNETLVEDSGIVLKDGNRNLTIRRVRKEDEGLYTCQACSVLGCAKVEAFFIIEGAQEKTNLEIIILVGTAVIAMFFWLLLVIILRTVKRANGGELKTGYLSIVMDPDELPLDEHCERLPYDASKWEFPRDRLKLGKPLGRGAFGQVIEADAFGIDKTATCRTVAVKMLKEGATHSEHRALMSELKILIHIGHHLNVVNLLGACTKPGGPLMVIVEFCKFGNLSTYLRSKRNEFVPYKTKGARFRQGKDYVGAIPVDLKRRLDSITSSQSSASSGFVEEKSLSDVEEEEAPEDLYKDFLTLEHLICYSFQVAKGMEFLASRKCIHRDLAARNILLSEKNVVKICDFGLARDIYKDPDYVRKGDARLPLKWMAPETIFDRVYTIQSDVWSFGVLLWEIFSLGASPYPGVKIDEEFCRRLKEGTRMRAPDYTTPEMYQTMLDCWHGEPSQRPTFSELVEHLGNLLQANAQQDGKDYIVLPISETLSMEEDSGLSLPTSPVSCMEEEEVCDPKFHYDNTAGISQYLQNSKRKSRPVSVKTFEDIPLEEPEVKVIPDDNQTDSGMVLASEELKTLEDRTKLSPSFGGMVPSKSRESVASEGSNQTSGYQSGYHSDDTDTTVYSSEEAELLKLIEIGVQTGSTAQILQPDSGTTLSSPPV

B1: WT fibronectin-based scaffold protein (wild-type 10Fn3), E. coli, His6 (other)
chain: VSDVPRDLEVVAATPTSLLISWDAPAVTVRYYRITYGETGGNSPVQEFTVPGSKSTATISGLKPGVDYTITGYAVTGRGDSPASSKPISINYRTEIDKPSQHHHHHH
notes: E. coli-expressed soluble form; N-terminal Met not described
binding result: no binding (tested: log[M] about -6.9 (about 1e-7 M))
